Results: paper PMC8716928, “Effect of Mutations in GvpJ and GvpM on Gas Vesicle Formation of Halobacterium salinarum” (Frontiers in Microbiology, 2021)

T1: Fragment J1–56 of GvpJ, split-GFP fusion (Halobacterium salinarum, UniProt P24374 1-56)
T1 construct: GvpJ, p-vac region of Hbt. salinarum PHH1, residues 1–56; source: Hfx. volcanii transformant, in cells
T1 sequence (looked up): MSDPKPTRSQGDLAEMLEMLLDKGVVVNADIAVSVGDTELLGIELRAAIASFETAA

T2: Fragment J47–114 of GvpJ, split-GFP fusion (Halobacterium salinarum, UniProt P24374 47-114)
T2 construct: source: Hfx. volcanii transformant, in cells
T2 sequence (looked up): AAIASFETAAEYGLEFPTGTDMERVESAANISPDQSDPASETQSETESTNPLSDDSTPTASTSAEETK

T3: GvpF, entire protein, split-GFP fusion (Halobacterium salinarum, UniProt Q9HI21 1-213)
T3 construct: GvpF, p-vac region of Hbt. salinarum PHH1, 23 kDa; also called the entire GvpF; source: Hfx. volcanii transformant, in cells
T3 sequence (looked up): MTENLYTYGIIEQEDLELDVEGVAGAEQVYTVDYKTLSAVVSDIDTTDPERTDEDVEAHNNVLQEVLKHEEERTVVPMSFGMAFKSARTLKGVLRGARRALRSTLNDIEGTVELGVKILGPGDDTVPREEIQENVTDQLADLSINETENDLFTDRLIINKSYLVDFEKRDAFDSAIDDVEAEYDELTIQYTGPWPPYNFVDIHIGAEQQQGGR

T4: Fragment L1–134 of GvpL, split-GFP fusion (Halobacterium salinarum, UniProt Q9HI27 1-134)
T4 construct: GvpL, p-vac region of Hbt. salinarum PHH1, residues 1–134 (first of two domains); source: Hfx. volcanii transformant, in cells
T4 sequence (looked up): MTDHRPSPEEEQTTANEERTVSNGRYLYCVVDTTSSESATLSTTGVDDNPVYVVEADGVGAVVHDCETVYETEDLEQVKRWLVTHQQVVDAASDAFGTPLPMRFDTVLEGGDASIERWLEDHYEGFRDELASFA

T5: Fragment L133–281 of GvpL, split-GFP fusion (Halobacterium salinarum, UniProt Q9HI27 133-281)
T5 construct: GvpL, p-vac region of Hbt. salinarum PHH1, residues 133–281 (second of two domains); source: Hfx. volcanii transformant, in cells
T5 sequence (looked up): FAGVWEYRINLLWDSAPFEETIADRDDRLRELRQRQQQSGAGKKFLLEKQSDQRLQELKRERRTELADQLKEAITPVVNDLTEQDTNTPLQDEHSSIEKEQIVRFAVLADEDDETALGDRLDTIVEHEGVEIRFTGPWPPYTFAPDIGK

T6: Fragment F1–110 of GvpF, split-GFP fusion (Halobacterium salinarum, UniProt Q9HI21 1-110)
T6 construct: GvpF, p-vac region of Hbt. salinarum PHH1, residues 1–110 (first of two domains); source: Hfx. volcanii transformant, in cells
T6 sequence (looked up): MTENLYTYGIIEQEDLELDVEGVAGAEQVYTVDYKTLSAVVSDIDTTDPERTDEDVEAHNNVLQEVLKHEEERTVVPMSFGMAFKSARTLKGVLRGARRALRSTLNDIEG

B1: GvpG, split-GFP fusion (natural protein, Halobacterium salinarum, UniProt P24371 1-83, looked up)
chain: MFIIDDLFVSPFFSLLDILQTMALDEMYDTKSIRDDIKENQLLYEVGERSDEEYQQRKQALESQLEMAEQVQEQMRDRMEVKK
notes: GvpG, p-vac region of Hbt. salinarum PHH1; no truncation is mentioned; source: Hfx. volcanii transformant, in cells
B2: GvpK, split-GFP fusion (natural protein)
chain: not shown
notes: GvpK, p-vac region of Hbt. salinarum PHH1; no truncation is mentioned; source: Hfx. volcanii transformant, in cells
B3: GvpL, entire protein, split-GFP fusion of Figure 7 (natural protein, Halobacterium salinarum, UniProt Q9HI27 1-281, looked up)
chain: MTDHRPSPEEEQTTANEERTVSNGRYLYCVVDTTSSESATLSTTGVDDNPVYVVEADGVGAVVHDCETVYETEDLEQVKRWLVTHQQVVDAASDAFGTPLPMRFDTVLEGGDASIERWLEDHYEGFRDELASFAGVWEYRINLLWDSAPFEETIADRDDRLRELRQRQQQSGAGKKFLLEKQSDQRLQELKRERRTELADQLKEAITPVVNDLTEQDTNTPLQDEHSSIEKEQIVRFAVLADEDDETALGDRLDTIVEHEGVEIRFTGPWPPYTFAPDIGK
notes: GvpL, p-vac region of Hbt. salinarum PHH1, 32 kDa; also called the entire GvpL; source: Hfx. volcanii transformant, in cells
B4: GvpM, entire protein, split-GFP fusion of Figure 7 (natural protein, Halobacterium salinarum, UniProt P24377 1-84, looked up)
chain: MEPTKDETHAIVEFVDVLLRDGAVIQADVIVTVADIPLIGISLRAAIAGMTTMTEYGLFEEWDAAHRQQSEAFTTSPTADRRED
notes: GvpM, p-vac region of Hbt. salinarum PHH1; printed as 83 aa and as 84 aa; also called the entire GvpM; source: Hfx. volcanii transformant, in cells
B5: GvpJ, entire protein, split-GFP fusion of Figure 7 (natural protein, Halobacterium salinarum, UniProt P24374 1-114, looked up)
chain: MSDPKPTRSQGDLAEMLEMLLDKGVVVNADIAVSVGDTELLGIELRAAIASFETAAEYGLEFPTGTDMERVESAANISPDQSDPASETQSETESTNPLSDDSTPTASTSAEETK
notes: also called the entire GvpJ; source: Hfx. volcanii transformant, in cells
B6: Fragment A1–22 of GvpA, split-GFP fusion (peptide, UniProt P08958 1-22, looked up)
chain: MAQPDSSGLAEVLDRVLDKGVV
notes: GvpA, p-vac region of Hbt. salinarum PHH1, first 22 aa including α-helix 1; construct of Völkner et al. 2020; source: Hfx. volcanii transformant, in cells
B7: GvpA, entire protein, split-GFP fusion (natural protein, Halobacterium salinarum, UniProt P08958 1-76, looked up)
chain: MAQPDSSGLAEVLDRVLDKGVVVDVWARVSLVGIEILTVEARVVAASVDTFLHYAEEIAKIEQAELTAGAEAAPEA
notes: GvpA, p-vac region of Hbt. salinarum PHH1, 76 aa; also called the entire GvpA; source: Hfx. volcanii transformant, in cells
B8: Fragment M1–25 of GvpM, split-GFP fusion of Figure 7 (peptide, UniProt P24377 1-25, looked up)
chain: MEPTKDETHAIVEFVDVLLRDGAVI
notes: GvpM, p-vac region of Hbt. salinarum PHH1, N-terminal 25 aa; also called M25N; M(25N); source: Hfx. volcanii transformant, in cells
B9: Fragment M60–84 of GvpM, split-GFP fusion (peptide, UniProt P24377 60-84, looked up)
chain: EEWDAAHRQQSEAFTTSPTADRRED
notes: GvpM, p-vac region of Hbt. salinarum PHH1, C-terminal 25 aa; also called M25C; M(25C); source: Hfx. volcanii transformant, in cells
B10: GvpH, split-GFP fusion (natural protein, Halobacterium salinarum, UniProt P24372 1-182, looked up)
chain: MVPDENDDASDDQSSQLSGLLDQLHTLVEVLADIEEEGGHRHESGRIDRGNARIDYDYDVSIGLGRADGSSYDEEPSSNRSRSEQRSGQQRTTEDSIHVETRGGTSGDELVVVADLPGVTDDDVDVALDTDEQALTLRVDDDVVERVVLDRPDVAITDMTLRNQVLEIRLARTSDTDGGEST
notes: GvpH, p-vac region of Hbt. salinarum PHH1; no truncation is mentioned; source: Hfx. volcanii transformant, in cells
B11: Fragment A44–76 of GvpA, split-GFP fusion (domain or fragment, Halobacterium salinarum, UniProt P08958 44-76, looked up)
chain: VAASVDTFLHYAEEIAKIEQAELTAGAEAAPEA
notes: GvpA, p-vac region of Hbt. salinarum PHH1, residues 44–76; construct of Völkner et al. 2020; source: Hfx. volcanii transformant, in cells

Target: B3
Experiment: split reporter (BiFC, NanoBiT); split-GFP (mGFP2) in Hfx. volcanii transformants, entire Gvp proteins and fragments (Figure 7); arrangement of the GFP portions not stated; relative fluorescence (rf) of cells against untransformed WR340
Conditions: partners not purified

| relative fluorescence (rf) | Binder |
| --- | --- |
| 77.5 | B1 |
| 7.4 | B2 |

Target: T1, Fragment J1–56 of GvpJ, split-GFP fusion
Experiment: as above
Conditions: partners not purified

| relative fluorescence (rf) | Binder |
| --- | --- |
| 6.7 | B3 |

Target: T2, Fragment J47–114 of GvpJ, split-GFP …
Experiment: as above
Conditions: partners not purified

| relative fluorescence (rf) | Binder |
| --- | --- |
| < 5 | B4 |
| < 5 | B5 |
| < 5 | B2 |

Target: T3, GvpF, entire protein, split-GFP fusion
Experiment: as above
Conditions: partners not purified

| relative fluorescence (rf) | Binder |
| --- | --- |
| 41 | B6 |
| 20 | B7 |

Target: T4, Fragment L1–134 of GvpL, split-GFP …
Experiment: as above
Conditions: partners not purified

| relative fluorescence (rf) | Binder |
| --- | --- |
| < 2.6 | B1 |
| < 2.6 | B4 |
| < 2.6 | B5 |

Target: T5, Fragment L133–281 of GvpL, split-GFP …
Experiment: as above
Conditions: partners not purified

| relative fluorescence (rf) | Binder |
| --- | --- |
| < 2.6 | B1 |
| < 2.6 | B4 |
| < 2.6 | B5 |
| 6.1 | B2 |

Target: T6, Fragment F1–110 of GvpF, split-GFP …
Experiment: as above
Conditions: partners not purified

| relative fluorescence (rf) | Binder |
| --- | --- |
| < 4 | B6 |
| < 4 | B7 |

Target: T1, Fragment J1–56 of GvpJ, split-GFP fusion
Experiment: as above
Conditions: partners not purified
Remark: another data set of the same source

| relative fluorescence (rf) | Binder |
| --- | --- |
| 10 | B6 |
| 20 | B8 |
| 20 | B3 |
| 20 | B9 |

Target: T2, Fragment J47–114 of GvpJ, split-GFP …
Experiment: as above
Conditions: partners not purified
Remark: another data set of the same source

| relative fluorescence (rf) | Binder |
| --- | --- |
| 5 | B6 |
| 15 | B1 |
| 20 | B8 |
| 11 | B3 |
| 13 | B10 |
| 5 | B11 |
| 20 | B9 |
